From patent publication US20180355061A1 (Janssen / Centocor, published 2018)

What was measured:
[1] = target: T1, cyno PD-1 (soluble analyte in SPR) (cyno); test: SPR (ProteOn XPR36), mAb captured on anti-human IgG Fc, cyno PD-1 as analyte, 25 C
T1 construct: also called cynomolgus PD-1
Method: (§1) Affinity measurements were performed using a ProteOn XPR36 system (BioRad). […] Approximately 5000 RU (response units) of mAbs were immobilized. The kinetic experiments were performed at 25° C. in running buffer (DPBS+0.01% P20+100 μg/mL BSA). To perform kinetic experiments, 200 RU of mAbs were captured followed by injections of analytes (human and cyno PD-1) at concentrations ranging from 1.563 nM to 400 nM (in a […] serial dilution). The association phase was monitored for 3 minutes at 50 μL/min, then followed by 10 or 15 minutes of buffer flow (dissociation phase). The chip surface was regenerated with two 18 second pulses of 100 mM H₃PO₄ (Sigma, Cat #7961) at 100 μL/min.
(§2) The collected data were processed using ProteOn Manager software. First, the data was corrected for background using inter-spots. Then, double reference subtraction of the data was performed by using the buffer injection for analyte injections. The kinetic analysis of the data was performed using a Langmuir 1:1 binding model. The result for each mAb was reported in the format of ka (On-rate), kd (Off-rate) and KD (equilibrium dissociation constant).
(§3) Affinity of the antibodies to human and cyno PD-1 was measured using SPR as described in Example 1.

[2] = target: T2, human PD-1 (soluble analyte in SPR) (human, UniProt Q15116 25-170, limits assumed); test: SPR (ProteOn XPR36), mAb captured on anti-human IgG Fc, human PD-1 as analyte, 25 C
T2 construct: also called CD279; PDCD1
Method: as §1, §2, §3

[3] = target: T2, human PD-1 (soluble analyte in SPR); test: SPR (ProteOn XPR36), mAb from crude supernatant captured on anti-human IgG Fc, PD-1 as analyte, 25 C
[4] = target: T2, human PD-1 (soluble analyte in SPR); test: SPR (ProteOn XPR36), mAb captured on anti-human IgG Fc, PD-1 as analyte, 25 C
Method: as §1, §2
Affinity of the parental and humanized antibodies to PD-1 was measured using SPR as described in Example 1.

[5] = target: T3, biotinylated Human PD-1/PDCD1 (Acro Biosystems. Cat #PD1-H82E4) (human, UniProt Q15116 25-167, biotinylated); test: Fab ELISA: Fab captured by anti-Fd(CH1), biotinylated human PD-1 at 5 nM, streptavidin-HRP chemiluminescence; reference parental PD1B878 Fab
T3 construct: Bought reagent, construct not described
Method: For follow-up screening, plasmid DNA was prepared from overnight culture of the TG-1 Escherichia coli cells and the pIX gene was excised by NheI/SpeI digestion. After ligation, the DNA was transformed into TG-1 cells and grown on LB/Agar plates overnight. The next day, colonies were picked, grown overnight, and the cultures used for (i) colony sequencing of the V-regions, and (ii) induction of Fab production. For Fab production, the overnight culture was diluted 100 folds in new media and grown for 5-6 hours at 37° C. Fab production was induced by the addition of fresh media containing IPTG and the cultures were grown overnight at 30° C. The following day, the cultures were spun down and the supernatants, containing the soluble Fab proteins, were used for Fab ELISA. For the ELISA, the soluble Fab proteins were captured onto plates by a polyclonal anti-Fd(CH1) antibody. After washing and blocking, biotinylated Human PD-1/PDCD1 was added at 5 nM concentration. This concentration enabled ranking of the Fab variants, defined as fold change versus the parent, in which the parental Fab, present as a control in all plates, is defined as 100% binding. The biotinylated human PD-1 was detected by HRP-conjugated streptavidin with chemiluminescence measured in a plate reader.

T3 sequence (Q15116 25-167 limits assumed): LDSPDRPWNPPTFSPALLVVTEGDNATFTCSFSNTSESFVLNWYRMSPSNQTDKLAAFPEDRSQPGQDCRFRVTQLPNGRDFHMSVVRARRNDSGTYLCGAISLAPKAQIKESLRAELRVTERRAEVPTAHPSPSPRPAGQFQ
T2 sequence (Q15116 25-170 limits assumed): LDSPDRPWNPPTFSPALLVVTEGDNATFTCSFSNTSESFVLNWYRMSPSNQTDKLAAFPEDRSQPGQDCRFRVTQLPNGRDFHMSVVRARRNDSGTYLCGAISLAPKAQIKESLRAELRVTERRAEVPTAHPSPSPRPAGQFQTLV

| Binder | Kd [3] | koff [3] | kon [3] | fold binding relative to parental Fab [5] | other results |
| --- | --- | --- | --- | --- | --- |
| PD1B1095 (antibody, human IgG1, kappa, V domains shown, also called VH PD1H587; VL PD1L652) VH: QVQLVQSGSELKKPGASVKVSCKASGYTFTDYSMHWVRQAPGQGLEWMGWINIETGWPTYAQGFTGRFVFSLDTSVSTAYLQISSLKAEDTAVYFCARDYYGTYFYAMDYWGQGTLVTVSS VL: EIVLTQSPATLSLSPGERATLSCTASSSVPSSYLHWYQQKPGLAPRLLIYSTSNLASGIPDRFSGSGSGTDYTLTISRLEPEDFAVYYCHQYHRSPLTFGQGTKLEIKR |  |  |  |  | Kd [1]: 4.23 nM; koff [1]: 0.000781 s⁻¹; kon [1]: 185000 M⁻¹ s⁻¹; Kd [2]: 0.471 nM; koff [2]: 7.12e-05 s⁻¹; kon [2]: 151000 M⁻¹ s⁻¹ |
| PD1B845 (antibody, human IgG1, kappa, V domains shown, G56A variant of PD1B750, IgG1; tested as crude supernatant in SPR; also called VH PD1H399; VL PD1L470) VH: QVQLVQSGAEVKKPGASVKVSCKASGYTFTTYWMHWVRQAPGQGLEWMGEINPNNAGINYAQKFQGRVTLTVDKSISTAYMELSRLRSDDTAVYYCTIDYYDYGGYWGQGTLVTVSS VL: DIQMTQSPSSLSASVGDRVTITCKASQNVGTNVAWYQQKPEKAPKSLIYSASYRYSGVPSRFSGSGSGTDFTLTISSLQPEDFATYYCQQYNIYPYTFGQGTKLEIKR | 24 nM | 0.00843 s⁻¹ | 351000 M⁻¹ s⁻¹ |  |  |
| PD1B846 (antibody, human IgG1, kappa, V domains shown, N55D, G56A variant of PD1B750, IgG1; tested as crude supernatant in SPR; also called VH PD1H400; VL PD1L470) VH: QVQLVQSGAEVKKPGASVKVSCKASGYTFTTYWMHWVRQAPGQGLEWMGEINPNDAGINYAQKFQGRVTLTVDKSISTAYMELSRLRSDDTAVYYCTIDYYDYGGYWGQGTLVTVSS VL: DIQMTQSPSSLSASVGDRVTITCKASQNVGTNVAWYQQKPEKAPKSLIYSASYRYSGVPSRFSGSGSGTDFTLTISSLQPEDFATYYCQQYNIYPYTFGQGTKLEIKR | 21.6 nM | 0.00753 s⁻¹ | 349000 M⁻¹ s⁻¹ |  |  |
| PD1B847 (antibody, human IgG1, kappa, V domains shown, N55Q variant of PD1B750, IgG1; tested as crude supernatant in SPR; also called VH PD1H401; VL PD1L470) VH: QVQLVQSGAEVKKPGASVKVSCKASGYTFTTYWMHWVRQAPGQGLEWMGEINPNQGGINYAQKFQGRVTLTVDKSISTAYMELSRLRSDDTAVYYCTIDYYDYGGYWGQGTLVTVSS VL: DIQMTQSPSSLSASVGDRVTITCKASQNVGTNVAWYQQKPEKAPKSLIYSASYRYSGVPSRFSGSGSGTDFTLTISSLQPEDFATYYCQQYNIYPYTFGQGTKLEIKR | 24.6 nM | 0.00744 s⁻¹ | 303000 M⁻¹ s⁻¹ |  |  |
| PD1B848 (antibody, human IgG1, kappa, V domains shown, N55K variant of PD1B750, IgG1; tested as crude supernatant in SPR; also called VH PD1H402; VL PD1L470) VH: QVQLVQSGAEVKKPGASVKVSCKASGYTFTTYWMHWVRQAPGQGLEWMGEINPNKGGINYAQKFQGRVTLTVDKSISTAYMELSRLRSDDTAVYYCTIDYYDYGGYWGQGTLVTVSS VL: DIQMTQSPSSLSASVGDRVTITCKASQNVGTNVAWYQQKPEKAPKSLIYSASYRYSGVPSRFSGSGSGTDFTLTISSLQPEDFATYYCQQYNIYPYTFGQGTKLEIKR | 39.2 nM | 0.00991 s⁻¹ | 253000 M⁻¹ s⁻¹ |  |  |
| PD1B849 (antibody, human IgG1, kappa, V domains shown, N55E variant of PD1B750, IgG1; also called VH PD1H403; VL PD1L470) VH: QVQLVQSGAEVKKPGASVKVSCKASGYTFTTYWMHWVRQAPGQGLEWMGEINPNEGGINYAQKFQGRVTLTVDKSISTAYMELSRLRSDDTAVYYCTIDYYDYGGYWGQGTLVTVSS VL: DIQMTQSPSSLSASVGDRVTITCKASQNVGTNVAWYQQKPEKAPKSLIYSASYRYSGVPSRFSGSGSGTDFTLTISSLQPEDFATYYCQQYNIYPYTFGQGTKLEIKR |  |  |  |  | Kd [4]: 47.1 nM; koff [4]: 0.00883 s⁻¹; kon [4]: 188000 M⁻¹ s⁻¹ |
| PD1B850 (antibody, human IgG1, kappa, V domains shown, G56I variant of PD1B750, IgG1; tested as crude supernatant in SPR; also called VH PD1H404; VL PD1L470) VH: QVQLVQSGAEVKKPGASVKVSCKASGYTFTTYWMHWVRQAPGQGLEWMGEINPNNIGINYAQKFQGRVTLTVDKSISTAYMELSRLRSDDTAVYYCTIDYYDYGGYWGQGTLVTVSS VL: DIQMTQSPSSLSASVGDRVTITCKASQNVGTNVAWYQQKPEKAPKSLIYSASYRYSGVPSRFSGSGSGTDFTLTISSLQPEDFATYYCQQYNIYPYTFGQGTKLEIKR | 23 nM | 0.00719 s⁻¹ | 313000 M⁻¹ s⁻¹ |  |  |
| PD1B505 (antibody, human IgG1, kappa, V domains shown, Parental mouse antibody cloned as chimeric human IgG1; Bin 1; also called VH PD1H93; VL PD1L30) VH: DVQLQESGPELKKPGETVKISCKASGYTFTDYSMHWVKQAPGKGLKWMGWINIETGEPTYADDFKGRFAFSLETSASTAYLQINNLKNEDTATYFCARDYYGTYFYAMDYWGQGTTLTVSS VL: QIVLTQSPAIMSASLGERVTMTCTASSSVSSSYLHWYQQKPGSSPKLWIYSTSNLASGVPARFSGSGSGTSYSLTISSMEAEDAATYYCHQYHRSPLTFGAGTKLELKR |  |  |  |  | Kd [4]: 29.1 nM; koff [4]: 0.00236 s⁻¹; kon [4]: 81100 M⁻¹ s⁻¹ |
| PD1B506 (antibody, human IgG1, kappa, V domains shown, Parental mouse antibody cloned as chimeric human IgG1; Bin 5; also called VH PD1H90; VL PD1L28) VH: QVQLQQPGAELVKPGASVKLSCKASGYTFTTYWMHWVKQRPGQGLEWIGEINPNNGGINYNEKFKKKATLTVDKSSSTAYMQLSSLTSEDSAVYYCTIDYYDYGGYWGQGTTLTVSS VL: DIVMTQSQKFMSTSVRDRVSVTCKASQNVGTNVAWYQQKPGQSPKALIYSASYRYSGVPDRFTGSGSGTDFTLTITNVQSEDLAEYFCQQYNIYPYTFGSGTKLEMKR |  |  |  |  | Kd [4]: 52.4 nM; koff [4]: 0.0102 s⁻¹; kon [4]: 195000 M⁻¹ s⁻¹ |
| Fab variant of PD1B878 with VH PD1H585 (E57Y) (Fab, V domains shown, Soluble Fab in E. coli supernatant; pairing with the parental VL inferred from the non-combinatorial library design) VH: QVQLVQSGSELKKPGASVKVSCKASGYTFTDYSMHWVRQAPGQGLEWMGWINIETGYPTYAQGFTGRFVFSLDTSVSTAYLQISSLKAEDTAVYFCARDYYGTYFYAMDYWGQGTLVTVSS VL: EIVLTQSPATLSLSPGERATLSCTASSSVSSSYLHWYQQKPGLAPRLLIYSTSNLASGIPDRFSGSGSGTDYTLTISRLEPEDFAVYYCHQYHRSPLTFGQGTKLEIK |  |  |  | ≥ 10 fold |  |
| Fab variant of PD1B878 with VH PD1H586 (E57H) (Fab, V domains shown, Soluble Fab in E. coli supernatant; pairing with the parental VL inferred) VH: QVQLVQSGSELKKPGASVKVSCKASGYTFTDYSMHWVRQAPGQGLEWMGWINIETGHPTYAQGFTGRFVFSLDTSVSTAYLQISSLKAEDTAVYFCARDYYGTYFYAMDYWGQGTLVTVSS VL: EIVLTQSPATLSLSPGERATLSCTASSSVSSSYLHWYQQKPGLAPRLLIYSTSNLASGIPDRFSGSGSGTDYTLTISRLEPEDFAVYYCHQYHRSPLTFGQGTKLEIK |  |  |  | ≥ 10 fold |  |
| Fab variant of PD1B878 with VH PD1H587 (E57W) (Fab, V domains shown, Soluble Fab in E. coli supernatant; pairing with the parental VL inferred) VH: QVQLVQSGSELKKPGASVKVSCKASGYTFTDYSMHWVRQAPGQGLEWMGWINIETGWPTYAQGFTGRFVFSLDTSVSTAYLQISSLKAEDTAVYFCARDYYGTYFYAMDYWGQGTLVTVSS VL: EIVLTQSPATLSLSPGERATLSCTASSSVSSSYLHWYQQKPGLAPRLLIYSTSNLASGIPDRFSGSGSGTDYTLTISRLEPEDFAVYYCHQYHRSPLTFGQGTKLEIK |  |  |  | ≥ 10 fold |  |
| Fab variant of PD1B878 with VL PD1L651 (V29F) (Fab, V domains shown, Soluble Fab in E. coli supernatant; pairing with the parental VH inferred) VH: QVQLVQSGSELKKPGASVKVSCKASGYTFTDYSMHWVRQAPGQGLEWMGWINIETGEPTYAQGFTGRFVFSLDTSVSTAYLQISSLKAEDTAVYFCARDYYGTYFYAMDYWGQGTLVTVSS VL: EIVLTQSPATLSLSPGERATLSCTASSSFSSSYLHWYQQKPGLAPRLLIYSTSNLASGIPDRFSGSGSGTDYTLTISRLEPEDFAVYYCHQYHRSPLTFGQGTKLEIK |  |  |  | ≥ 10 fold |  |
| Fab variant of PD1B878 with VL PD1L652 (S30P) (Fab, V domains shown, Soluble Fab in E. coli supernatant; pairing with the parental VH inferred) VH: QVQLVQSGSELKKPGASVKVSCKASGYTFTDYSMHWVRQAPGQGLEWMGWINIETGEPTYAQGFTGRFVFSLDTSVSTAYLQISSLKAEDTAVYFCARDYYGTYFYAMDYWGQGTLVTVSS VL: EIVLTQSPATLSLSPGERATLSCTASSSVPSSYLHWYQQKPGLAPRLLIYSTSNLASGIPDRFSGSGSGTDYTLTISRLEPEDFAVYYCHQYHRSPLTFGQGTKLEIK |  |  |  | ≥ 10 fold |  |
